Measured values: patent US20050064507A1, “Determining kinase specificity” (priority 2003, published 2005)

Target: T1, PKC-theta (Homo sapiens, UniProt Q04759)
T1 construct: His-tag; made in house; host or cells: baculovirus-infected Sf9 cells
Assay: In vitro kinase assay: peptide phosphorylation by PKC-theta
Assay type: biochemical
Settings: for PKC theta phosphorylation: normalized to best substrate
Outline: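 Recombinant human PKC-theta, expressed in baculovirus-infected Sf9 cells and purified on a nickel chelating column, was incubated with biotinylated peptides, 100 μM ATP containing ^32P-gamma ATP, and PKC buffer with CaCl2, MgCl2, phosphatidyl serine and PMA at 30° C. Reactions were stopped with ATP/EDTA. Peptides were captured on streptavidin-coated plates, and phosphorylation was normalized to the best substrate.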

T1 sequence (Q04759 whole entry): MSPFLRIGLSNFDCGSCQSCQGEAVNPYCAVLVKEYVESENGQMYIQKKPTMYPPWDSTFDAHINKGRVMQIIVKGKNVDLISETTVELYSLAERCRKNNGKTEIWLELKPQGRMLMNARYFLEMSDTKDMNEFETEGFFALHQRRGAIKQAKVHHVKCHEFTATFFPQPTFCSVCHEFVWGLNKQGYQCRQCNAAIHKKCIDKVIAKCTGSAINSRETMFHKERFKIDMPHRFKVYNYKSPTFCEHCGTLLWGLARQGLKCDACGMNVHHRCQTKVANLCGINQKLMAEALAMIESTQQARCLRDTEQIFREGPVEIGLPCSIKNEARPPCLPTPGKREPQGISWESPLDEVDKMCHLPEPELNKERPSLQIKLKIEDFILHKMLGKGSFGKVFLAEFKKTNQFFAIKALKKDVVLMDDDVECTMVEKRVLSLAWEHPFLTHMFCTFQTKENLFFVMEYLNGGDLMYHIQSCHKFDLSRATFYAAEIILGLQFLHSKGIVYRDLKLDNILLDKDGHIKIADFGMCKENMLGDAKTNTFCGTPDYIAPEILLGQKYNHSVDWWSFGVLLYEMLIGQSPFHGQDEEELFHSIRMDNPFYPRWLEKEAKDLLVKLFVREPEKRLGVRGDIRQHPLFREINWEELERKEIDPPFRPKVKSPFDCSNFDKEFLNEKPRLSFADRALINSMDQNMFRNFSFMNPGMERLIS

| Substance | PKC theta phosphorylation [%] | phosphorylation by PKC theta (peptide concentration 1 uM) | phosphorylation by PKC theta (peptide concentration 10 uM) |
| --- | --- | --- | --- |
| 81 (KRERKTSSKSSVRKRR) [compound 81] | 46 | – | – |
| 87 (RQGKRKTSIKRDTVNPL) [compound 87] | 65 | – | – |
| 88 (KKPFKLSGLSFKRNRKE) [compound 88] | 38 | – | – |
| 91 (VHYTSKDTLRKRHYWR) [compound 91] | 10 | – | – |
| 97 (KKRSSKKEASMKKVVRP) [compound 97] | 31 | – | – |
| 98 (AGPLRKSSLKKGGRL) [compound 98] | 22 | – | – |
| 148 (RELEQLKAEYLERRASRRRA) [compound 148] | – | 34 | 34 |
| 149 (RVVQSVKHTKRKSSTVMK) [compound 149] | – | 13 | 14 |
| 150 (VDPFYEMLAARKKRISVKKK) [compound 150] | – | 35 | 35 |
| 151 (PQNSLKASNRKKKRTSFKRK) [compound 151] | – | 25 | 19 |
| 152 (DLIEGRKGAQIVKRASLKRG) [compound 152] | – | 31 | 30 |
| 153 (TYLLPDKSRQGKRKTSIKRD) [compound 153] | – | 22 | 18 |
